Data published in patent US20090068637A1.
Positions count from the first letter of the chain named. Where two headings read alike, the source gives them in different places.

What was measured:
Assay in all cases: cell-based or functional assay
[1] = target: HA of H5N1 virus strain MB2 (avian influenza virus H5N1)
[2] = target: HA of H5N1 virus strain VTM1.1 (avian influenza virus H5N1)
[3] = target: HA of H5N1 virus strain IDN1.1 (avian influenza virus H5N1)
[4] = target: non-H5 viruses (14 strains; H1~H13, Chicken NDV)
[5] = target: HA of H5N1 virus strain GD3 (avian influenza virus H5N1)
[6] = target: HA of H5N1 virus strain MIX2 (avian influenza virus H5N1)
[7] = target: HA of H5N1 virus strain VTM4 (avian influenza virus H5N1)
[8] = target: HA of H5N1 virus strain IDN4 (avian influenza virus H5N1)
[9] = target: HA of H5N1 virus strain MIX3 (avian influenza virus H5N1)
[10] = target: HA of H5N1 virus strain IDN2 (avian influenza virus H5N1)
[11] = target: HA of H5N1 virus strain VTM3 (avian influenza virus H5N1)
[12] = target: HA of H5N1 virus strain MB1 (avian influenza virus H5N1)
[13] = target: HA of H5N1 virus strain VNM2.1 (avian influenza virus H5N1)
[14] = target: HA of H5N1 virus strain MIX1 (avian influenza virus H5N1)
[15] = target: HA of H5N1 virus strain HN2 (avian influenza virus H5N1)
[16] = target: HA of H5N1 virus strain VTM2 (avian influenza virus H5N1)
[17] = target: HA of H5N1 virus strain HN1 (avian influenza virus H5N1)
[18] = target: HA of H5N1 virus strain GD2 (avian influenza virus H5N1)
[19] = target: HA of H5N1 virus strain IDN5 (avian influenza virus H5N1)
[20] = target: H5 virus strains (thirty-four strains of H5N1 viruses)
[21] = target: HA of H5N1 virus strain YN1 (avian influenza virus H5N1)
[22] = target: HA of H5N1 virus strain IDN3 (avian influenza virus H5N1)
[23] = target: HA of H5N1 virus strain GD1 (avian influenza virus H5N1)
[24] = target: H5 virus strains (thirty-four strains of H5N1 viruses); remark: listed apart in the source
[25] = target: HA of H5N1 virus strain B8 (avian influenza virus H5N1)
[26] = target: HA of H5N1 virus strain A3 (avian influenza virus H5N1)
[27] = target: HA of H5N1 virus strain A7 (avian influenza virus H5N1)
[28] = target: HA of H5N1 virus strain A1 (avian influenza virus H5N1)
[29] = target: HA of H5N1 virus strain A6 (avian influenza virus H5N1)
[30] = target: HA of H5N1 virus strain B7 (avian influenza virus H5N1)
[31] = target: HA of H5N1 virus strain A2 (avian influenza virus H5N1)
[32] = target: HA of H5N1 virus strain B6 (avian influenza virus H5N1)
[33] = target: HA of H5N1 virus strain H2 (avian influenza virus H5N1)
[34] = target: HA of H5N1 virus strain F2 (avian influenza virus H5N1)
[35] = target: HA of H5N1 virus strain D1 (avian influenza virus H5N1)
[36] = target: HA of H5N1 virus strain A8 (avian influenza virus H5N1)
[37] = target: HA of H5N1 virus strain H1 (avian influenza virus H5N1)
[38] = target: HA of H5N1 virus strain E2 (avian influenza virus H5N1)
[39] = target: HA of H5N1 virus strain C1 (avian influenza virus H5N1)
[40] = target: HA of H5N1 virus strain E1 (avian influenza virus H5N1)
[41] = target: HA of H5N1 virus strain C2 (avian influenza virus H5N1)
[42] = target: HA of H5N1 virus strain A4 (avian influenza virus H5N1)
[43] = target: HA of H5N1 virus strain B1 (avian influenza virus H5N1)
[44] = target: HA of H5N1 virus strain G1 (avian influenza virus H5N1)
[45] = target: HA of H5N1 virus strain F3 (avian influenza virus H5N1)
[46] = target: HA of H5N1 virus strain C3 (avian influenza virus H5N1)
[47] = target: HA of H5N1 virus strain B4 (avian influenza virus H5N1)
[48] = target: HA of H5N1 virus strain B3 (avian influenza virus H5N1)
[49] = target: HA of H5N1 virus strain B2 (avian influenza virus H5N1)
[50] = target: HA of H5N1 virus strain B5 (avian influenza virus H5N1)
[51] = target: HA of H5N1 virus strain D2 (avian influenza virus H5N1)
[52] = target: HA of H5N1 virus strain A5 (avian influenza virus H5N1)

B1: monoclonal antibody 3C8 (antibody, V domains shown)
VH: QIQLVQSGPELKKPGETVKISCKASGYSFTNYGMNWVKQAPGKGLKWMGWINTYTGEPAYADDFKGRFAFSLETSASTAYLQINNLKNEDTATYFCARWNRDAMDYWGQGTSVTVSS
VL: DIVLTQSPASLAVSLGQRATISCRASESVDSSDNSLMHWYQQKPGQPPKLLIYRASNLESGIPARFSGSGSRTDFTLTINPVEADDVATYYCQQSIGDPPYTFGGGTKLEIKR
- HI titer [1]: 3200 titer
- Neutralization titer [1]: 12800 titer
- HI titer [2]: 3200 titer
- Neutralization titer [2]: 1600 titer
- HI titer [3]: 3200 titer
- Neutralization titer [3]: 6400 titer
- HI assay: positive number/total virus number (of 14 strains) [4]: 0
- HI titer [5]: 3200 titer
- Neutralization titer [5]: 200 titer
- HI titer [6]: 800 titer
- Neutralization titer [6]: < 100 titer
- HI titer [7]: 800 titer
- Neutralization titer [7]: 12800 titer
- HI titer [8]: 6400 titer
- Neutralization titer [8]: 12800 titer
- HI titer [9]: 400 titer
- Neutralization titer [9]: 200 titer
- HI titer [10]: 400 titer
- Neutralization titer [10]: 12800 titer
- HI titer [11]: 6400 titer
- Neutralization titer [11]: 12800 titer
- HI titer [12]: 400 titer
- HI titer [13]: < 100 titer
- Neutralization titer [13]: < 100 titer
- HI titer [14]: 1600 titer
- Neutralization titer [14]: 100 titer
- HI titer [15]: 800 titer
- Neutralization titer [15]: 6400 titer
- HI titer [16]: 1600 titer
- Neutralization titer [16]: 6400 titer
- HI titer [17]: 3200 titer
- Neutralization titer [17]: 12800 titer
- HI titer [18]: 12800 titer
- Neutralization titer [18]: 12800 titer
- HI titer [19]: 6400 titer
- Neutralization titer [19]: 6400 titer
- HI assay: positive number/total virus number (of 34 strains) [20]: 32
- HI titer [21]: 1600 titer
- HI titer [22]: < 100 titer
- HI titer [23]: 6400 titer
- Neutralization titer [23]: 12800 titer

B2: monoclonal antibody 2F2 (antibody, V domains shown)
VH: QVQLKESGPGLVAPSQRLSITCTVSGFSLTGYGVHWIRQSPGKGLEWLGMIWAEGRTDYNSVLKSRLSINKDNSRSQVFLEMNSLQTDDTARYYCAREVITTEAWYFDVWGQGTSVTES
VL: DIVMTQSPATLSVTPGDRVSLSCRASQSISDYLYWYQQKSHESPRLLIKYASQSISGIPSRFSGSGSGSDFTLTINSVEPEDVGMYYCQNGHTFPLTFGAGTKLEIKR
- HI assay: positive number/total virus number (of 14 strains) [4]: 0
- HI assay: positive number/total virus number (of 34 strains) [24]: 28

B3: 4D1 chimeric antibody (antibody, V domains shown)
VH: QVQLQQPGAELVKPGASVNLSCKASGYTFTSYWMHWVKQRPGQGLEWIGEIDPSDSFTTYNQNFKDRATLTVDKSSSTAYMQLRSLTSEDSAVYYCARGGPGDFRYAMDYWGQGTSVTVSS
VL: DILMTQSPSSMSVSLGDTVSITCHASQGISSNIGWLQQKPGKSFKGLIYHGTNLEDGVPSRFSGSGSGADYSLTISSLESEDFADYYCVQYVQFPYTFGGGTKLEIKR
- HI test result [25]: 4 n
- HI test result [26]: 5.5 n
- HI test result [27]: 4 n
- HI test result [28]: 5 n
- HI test result [29]: 4.5 n
- HI test result [30]: 7 n
- HI test result [31]: 5.5 n
- HI test result [32]: 6.5 n
- HI test result [33]: 1 n
- HI test result [34]: 1 n
- HI test result [35]: 5 n
- HI test result [36]: 5.5 n
- HI test result [37]: 1 n
- HI test result [38]: 7.5 n
- HI test result [39]: 7.5 n
- HI test result [40]: 5.5 n
- HI test result [41]: 6 n
- HI test result [42]: 6 n
- HI test result [43]: > 8 n
- HI test result [44]: 1 n
- HI test result [45]: 1 n
- HI test result [46]: 4 n
- HI test result [47]: 5.5 n

B4: 10F7 chimeric antibody (antibody, V domains shown)
VH: B3 VH with N19K, F57Y, T59N, N63K, D66G, R67K, R84S, P101T, R105H
VL: B3 VL
- HI test result [25]: 4.5 n
- HI test result [26]: 6.5 n
- HI test result [27]: 5.5 n
- HI test result [28]: 6.5 n
- HI test result [29]: 5 n
- HI test result [30]: 7 n
- HI test result [31]: 7 n
- HI test result [32]: 6 n
- HI test result [33]: 8 n
- HI test result [34]: 2.5 n
- HI test result [35]: 2.5 n
- HI test result [36]: 5.5 n
- HI test result [37]: 5.5 n
- HI test result [38]: > 8 n
- HI test result [39]: > 8 n
- HI test result [40]: 6 n
- HI test result [41]: 6 n
- HI test result [42]: 7 n
- HI test result [43]: > 8 n
- HI test result [44]: 6.5 n
- HI test result [45]: > 8 n
- HI test result [46]: 2.5 n
- HI test result [47]: 6 n

B5: 4D1 single chain antibody (scFv)
scFv: QVQLQQPGAELVKPGASVNLSCKASGYTFTSYWMHWVKQRPGQGLEWIGEIDPSDSFTTYNQNFKDRATLTVDKSSSTAYMQLRSLTSEDSAVYYCARGGPGDFRYAMDYWGQGTSVTVSSGGGGSDILMTQSPSSMSVSLGDTVSITCHASQGISSNIGWLQQKPGKSFKGLIYHGTNLEDGVPSRFSGSGSGADYSLTISSLESEDFADYYCVQYVQFPYTFGGGTKLEIKRA
- HI titer (n) (n (dilution 2^n)) [25]: > 8
- HI titer (n) (n (dilution 2^n)) [26]: > 8
- HI titer (n) (n (dilution 2^n)) [27]: 6
- HI titer (n) (n (dilution 2^n)) [28]: > 8
- HI titer (n) (n (dilution 2^n)) [29]: 7
- HI titer (n) (n (dilution 2^n)) [30]: > 8
- HI titer (n) (n (dilution 2^n)) [31]: > 8
- HI titer (n) (n (dilution 2^n)) [32]: > 8
- HI titer (n) (n (dilution 2^n)) [33]: 4
- HI titer (n) (n (dilution 2^n)) [34]: 5
- HI titer (n) (n (dilution 2^n)) [48]: > 8
- HI titer (n) (n (dilution 2^n)) [35]: > 8
- HI titer (n) (n (dilution 2^n)) [36]: > 8
- HI titer (n) (n (dilution 2^n)) [49]: 0
- HI titer (n) (n (dilution 2^n)) [37]: 6
- HI titer (n) (n (dilution 2^n)) [38]: 1
- HI titer (n) (n (dilution 2^n)) [50]: 0
- HI titer (n) (n (dilution 2^n)) [51]: 7.5
- HI titer (n) (n (dilution 2^n)) [40]: 1
- HI titer (n) (n (dilution 2^n)) [41]: > 8
- HI titer (n) (n (dilution 2^n)) [43]: > 8
- HI titer (n) (n (dilution 2^n)) [44]: 3.5
- HI titer (n) (n (dilution 2^n)) [45]: 3
- HI titer (n) (n (dilution 2^n)) [52]: > 8
- HI titer (n) (n (dilution 2^n)) [46]: > 8
- HI titer (n) (n (dilution 2^n)) [47]: > 8
